From patent US6884600 (MEDICAL RESEARCH COUNCIL LONDON, dated 2005)
Blank lines part the entries; values can stand above or below the binder they belong to.

B1: β isoform of PP1c released from rabbit skeletal muscle PP1G (enzyme, UniProt P62143 2-327, looked up)
chain: ADGELNVDSLITRLLEVRGCRPGKIVQMTEAEVRGLCIKSREIFLSQPILLELEAPLKICGDIHGQYTDLLRLFEYGGFPPEANYLFLGDYVDRGKQSLETICLLLAYKIKYPENFFLLRGNHECASINRIYGFYDECKRRFNIKLWKTFTDCFNCLPIAAIVDEKIFCCHGGLSPDLQSMEQIRRIMRPTDVPDTGLLCDLLWSDPDKDVQGWGENDRGVSFTFGADVVSKFLNRHDLDLICRAHQVVEDGYEFFAKRQLVTLFSAPNYCGEFDNAGGMMSVDETLMCSFQILKPSEKKAKYQYGGLNSGRPVTPPRTANPPKKR
notes: mature; also called PP1 catalytic subunit

Legend:
[1] = molecular target: T1, myosin from chicken gizzard, dephosphorylated form (chicken, UniProt P10587 2-1979; P02612 2-172; P02607 2-151); assay: co-sedimentation with myosin, phosphatase activity in pellet and supernatant
T1 construct: mature; Native protein pelleted by centrifugation; 1 µM in terms of heavy chains; also called myosin dimer
Description: The PP1 catalytic subunit (PP1c), PP1_M, or PP1_M lacking the $M21$ subunit, $PP1_M(\Delta M21)$, each at 30 nM, were incubated for 15 min at 0° C. with 1 μM myosin and centrifuged (see Methods of Example 3). […] The results shown are the average (±S.E.M.) for three separate experiments each assayed in duplicate.
Myosin binding assays. Myosin (0.5 mg/ml, 1 µM in terms of myosin heavy chains) in 10 mM Hepes pH 7.5, 50 mM KCl, 5 mM MgCl2, 0.1% (by vol) 2-mercaptoethanol, was mixed with PP1_M, M$21$ subunit, or fragments of the M$110$ and M$21$ subunits, at the concentrations indicated in figure legends. After incubation for 15 min at 0° C., the solutions were centrifuged for 2 min at 13,000×g, the supernatants removed, and the pellets washed twice in 10 mM Hepes pH 7.5, 50 mM KCl, 5 mM MgCl2, 0.1% (by vol) 2-mercaptoethanol before resuspension in 50 mM Tris-HCl pH 7.5, 0.1 mM EGTA, 0.03% (by mass) Brij 35, 0.6 M NaCl, 0.1% (by vol) 2-mercaptoethanol. Aliquots of the supernatant, the resuspended pellet and the suspension before centrifugation were either assayed for myosin P-light chain phosphatase activity or denatured in SDS and analysed by SDS/polyacrylamide gel electrophoresis.

[2] = molecular target: B1; assay: cell-based or functional assay
[3] = molecular target: T1, myosin from chicken gizzard, …; assay: not described in Example 1
MBP-M110-(K933-I1004) = molecular target: T2, MBP-M110-(K933-I1004) (chicken, UniProt Q90623 933-1004, digoxigenin label when used as probe); assay: Far Western, blot probed with digoxigenin-labelled MBP-M110-(K933-I1004)
T2 construct: also called digoxigenin-labelled MBP-M110-(K933-I1004); digoxigenin-labelled M110-(K933-I1004)
T2 sequence: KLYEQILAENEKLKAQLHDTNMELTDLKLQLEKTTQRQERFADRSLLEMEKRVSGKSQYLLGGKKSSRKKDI
Description: A) GST-$M21$ 5 μg (track 1), $M21$ 5 μg (track 2), $M21$-(M1-L146) 5 μg (track 3), $M21$-(M1-E110) 20 μg (track 4) and $M21$-(E110-K186) 5 μg (track 5) were run on 16.5% polyacrylamide gels and stained with Coomassie Blue. The marker proteins ovalbumin (43 kDa) and carbonic anhydrase (29 kDa) are indicated. B) GST-$M21$ 0.5 μg (track 1), $M21$ 0.5 μg (track 2), $M21$-M1-L146) 0.5 μg (track 3), $M21$-(M1-E110) 5 μg (track 4) and $M21$-(E110-K186) 5 μg (track 5) were electrophoresed as in A) and after transfer to nitrocellulose the blots were probed with digoxigenin-labelled MBP-$M110$-(K933-I1004) (0.2 μg/Ml). C) same as B) except that, after electrophoresis, the proteins were transferred to nitrocellulose and probed with digoxigenin-labelled $M21$ subunit (0.2 μg/ml).

T1 sequence (P10587 2-1979, chain 1 of 3): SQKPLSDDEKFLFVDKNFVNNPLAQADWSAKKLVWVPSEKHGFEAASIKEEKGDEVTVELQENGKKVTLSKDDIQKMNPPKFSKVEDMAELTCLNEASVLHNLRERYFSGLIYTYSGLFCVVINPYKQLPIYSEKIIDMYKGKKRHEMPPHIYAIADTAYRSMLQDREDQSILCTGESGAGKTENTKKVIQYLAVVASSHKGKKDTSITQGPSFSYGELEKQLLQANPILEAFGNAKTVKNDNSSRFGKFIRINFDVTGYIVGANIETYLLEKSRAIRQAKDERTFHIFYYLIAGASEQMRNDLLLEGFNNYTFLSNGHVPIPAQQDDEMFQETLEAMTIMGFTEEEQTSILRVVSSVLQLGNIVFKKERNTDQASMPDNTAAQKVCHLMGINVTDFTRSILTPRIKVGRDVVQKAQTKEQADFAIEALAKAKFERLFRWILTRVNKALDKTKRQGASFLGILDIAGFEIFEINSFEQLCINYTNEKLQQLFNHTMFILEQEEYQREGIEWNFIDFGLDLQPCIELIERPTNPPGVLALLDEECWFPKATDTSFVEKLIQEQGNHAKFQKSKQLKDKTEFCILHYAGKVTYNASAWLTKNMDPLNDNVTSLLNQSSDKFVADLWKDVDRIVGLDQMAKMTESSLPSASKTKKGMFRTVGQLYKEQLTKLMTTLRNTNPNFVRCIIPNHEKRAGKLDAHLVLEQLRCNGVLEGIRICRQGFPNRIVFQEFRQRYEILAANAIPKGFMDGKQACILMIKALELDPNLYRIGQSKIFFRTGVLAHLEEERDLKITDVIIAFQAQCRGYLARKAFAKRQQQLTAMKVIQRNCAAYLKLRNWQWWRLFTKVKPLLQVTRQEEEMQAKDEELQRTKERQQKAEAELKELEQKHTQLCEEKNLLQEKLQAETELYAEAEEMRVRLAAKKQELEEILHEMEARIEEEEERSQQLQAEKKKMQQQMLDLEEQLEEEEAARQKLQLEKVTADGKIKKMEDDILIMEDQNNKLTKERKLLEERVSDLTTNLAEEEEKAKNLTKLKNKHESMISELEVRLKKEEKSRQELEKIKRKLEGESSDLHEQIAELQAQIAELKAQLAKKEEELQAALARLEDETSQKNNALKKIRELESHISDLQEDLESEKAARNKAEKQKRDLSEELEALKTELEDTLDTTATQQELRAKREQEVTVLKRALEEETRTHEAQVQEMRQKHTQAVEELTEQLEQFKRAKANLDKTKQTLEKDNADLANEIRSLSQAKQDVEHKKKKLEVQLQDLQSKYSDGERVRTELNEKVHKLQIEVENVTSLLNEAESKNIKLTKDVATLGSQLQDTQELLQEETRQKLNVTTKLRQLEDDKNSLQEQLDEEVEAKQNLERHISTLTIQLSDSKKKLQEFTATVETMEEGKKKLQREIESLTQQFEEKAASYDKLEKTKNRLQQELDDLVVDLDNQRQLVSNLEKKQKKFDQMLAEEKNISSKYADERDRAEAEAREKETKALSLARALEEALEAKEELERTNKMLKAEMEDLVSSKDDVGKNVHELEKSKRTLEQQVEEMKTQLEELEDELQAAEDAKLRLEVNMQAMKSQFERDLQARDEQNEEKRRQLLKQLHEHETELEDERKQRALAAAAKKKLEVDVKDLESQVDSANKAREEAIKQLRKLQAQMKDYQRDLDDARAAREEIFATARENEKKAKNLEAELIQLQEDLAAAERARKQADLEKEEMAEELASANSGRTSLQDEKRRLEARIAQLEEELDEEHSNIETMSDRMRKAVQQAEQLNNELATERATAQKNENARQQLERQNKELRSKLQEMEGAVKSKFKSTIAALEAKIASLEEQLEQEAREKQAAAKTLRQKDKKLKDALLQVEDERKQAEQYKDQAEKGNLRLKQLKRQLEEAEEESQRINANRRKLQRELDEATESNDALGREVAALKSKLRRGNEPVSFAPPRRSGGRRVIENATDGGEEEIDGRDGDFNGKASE
T1 sequence (P02612 2-172, chain 2 of 3): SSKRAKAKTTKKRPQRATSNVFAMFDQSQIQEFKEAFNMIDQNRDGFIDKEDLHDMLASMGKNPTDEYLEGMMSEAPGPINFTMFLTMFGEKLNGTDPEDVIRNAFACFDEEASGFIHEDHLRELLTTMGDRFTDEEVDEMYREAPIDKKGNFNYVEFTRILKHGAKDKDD
T1 sequence (P02607 2-151, chain 3 of 3): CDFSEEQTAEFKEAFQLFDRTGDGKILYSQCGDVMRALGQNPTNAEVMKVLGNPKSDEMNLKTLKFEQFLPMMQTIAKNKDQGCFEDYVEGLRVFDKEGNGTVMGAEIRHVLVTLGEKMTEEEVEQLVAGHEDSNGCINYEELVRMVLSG

Binder: B1
binding result [1]: no binding (tested: 30 nM with 1 µM myosin)

MLC20 phosphatase activity of PP1c [2]: ~3 fold
binding result [3]: no binding
B2: M110-(M1-E309), released from GST with thrombin (other)
chain: GSPGMKMADAKQKRNEQLKRWIGSETDLEPPVVKRQKTKVKFDDGAVFLAACSSGDTDEVLKLLHRGADINYANVDGLTALHQACIDDNVDMVKFLVENGANINQPDNEGWIPLHAAASCGYLDIAEFLIGQGAHVGAVNSEGDTPLDIAEEEAMEELLQNEVNRQGVDIEAARKEEERIMLRDARQWLNSGHISDVRHAKSGGTALHVAAAKGYTEVLKLLIQAGYDVNIKDYDGWTPLHAAAHWGKEEACRILVDNLCDMETVNKVGQTAFDVADEDILGYLEELQKKQNLLHSEKRDKKSPLIESTANMEA
notes: Rat aorta M110 fragment; free GST was left in the solution after cleavage; also called M100-(M1-E309)

binding result (MBP-M110-(K933-I1004)): no binding (tested: 0.2 µg/ml probe)
B3: M21-(M1-E110), released from GST with thrombin (other)
chain: MSSLFTRSKEYTRSRKSQSDSPPSSPSPIAKTLRHERLSRLEAATTPATSDSYSDRASSRSSAYSRRENRLAALSSRAEEESNRDYKKLYESALSENQKLKSKLQEAQLEA
notes: not shown: the few vector residues left at the N terminus after thrombin cleavage of the modified pGEX fusion
